# Test results published in PMC5520923.
# Biological target: Atg16 (human (endogenous in HCT116 and H1299)) (UniProt Q676U5)
# Assay: co-IP; lysates of HCT116/Shnon and HCT116/ShASPP1 cells (also H1299 with ASPP1 knock-down, Supplementary Figure 3B) immunoprecipitated with anti-Atg16 antibody; co-precipitated proteins detected by western blot
# UniProt Q676U5, sequence (Q676U5 whole entry): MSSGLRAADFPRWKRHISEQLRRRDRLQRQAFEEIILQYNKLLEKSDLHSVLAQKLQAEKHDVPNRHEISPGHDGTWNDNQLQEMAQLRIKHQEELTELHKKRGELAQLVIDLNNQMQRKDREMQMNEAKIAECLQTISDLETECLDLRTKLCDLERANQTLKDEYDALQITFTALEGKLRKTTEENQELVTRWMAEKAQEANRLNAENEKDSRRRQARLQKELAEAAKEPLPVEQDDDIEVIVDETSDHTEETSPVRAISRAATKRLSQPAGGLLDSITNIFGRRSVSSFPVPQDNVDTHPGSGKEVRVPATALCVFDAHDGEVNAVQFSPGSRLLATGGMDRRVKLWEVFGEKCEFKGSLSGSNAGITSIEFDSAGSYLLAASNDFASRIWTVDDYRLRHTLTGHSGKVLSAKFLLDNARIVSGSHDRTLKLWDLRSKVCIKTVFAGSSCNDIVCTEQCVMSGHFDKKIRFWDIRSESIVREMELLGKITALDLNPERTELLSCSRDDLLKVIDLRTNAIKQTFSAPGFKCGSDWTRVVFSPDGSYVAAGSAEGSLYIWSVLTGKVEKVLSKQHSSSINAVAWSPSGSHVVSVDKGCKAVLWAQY
substance,measurement,value
Atg5–Atg12 conjugate (from UniProt Q9H1Y0 1-275; O94817 1-140) (complex),"fold increase of Atg5–Atg12 in the Atg16 immunoprecipitate, ASPP1 knock-down against control cells (H1299)",2 fold
same,"fold increase of Atg5–Atg12 in the Atg16 immunoprecipitate, ASPP1 knock-down against control cells (HCT116)",2 fold
